The record followed here is US20250026846A1 (JCR PHARMACEUTICALS, published 2025).

A word on the Kd: it is the concentration at which binding is half-saturated. As a reminder, the koff is a measure of how fast the partners let go of each other. Usually kon stands for the second-order rate constant of association.

In assay [1] the target is T1, recombinant human TfR (r human TfR: Sino Biological Inc.), hTfR extracellular region with a histidine tag at … (human, UniProt P02786 89-760).
T1 construct: Bought from Sino Biological; also called r human TfR-ECD (Histag); recombinant hTfR; not shown: histidine tag at the N-terminus
The experiment in a line: BLI (Octet RED96), His-tagged TfR ECD on Ni-NTA sensor. (In general: BLI is a label-free optical method that tracks binding on a fibre tip over time.)

The target in assay [2] is T2, recombinant monkey TfR (r monkey TfR: Sino Biological Inc.), crab-eating monkey TfR extracellular region with … (crab-eating monkey (Macaca fascicularis)).
T2 construct: Bought from Sino Biological; also called r monkey TfR-ECD (Histag); not shown: histidine tag at the N-terminus
T2 chain: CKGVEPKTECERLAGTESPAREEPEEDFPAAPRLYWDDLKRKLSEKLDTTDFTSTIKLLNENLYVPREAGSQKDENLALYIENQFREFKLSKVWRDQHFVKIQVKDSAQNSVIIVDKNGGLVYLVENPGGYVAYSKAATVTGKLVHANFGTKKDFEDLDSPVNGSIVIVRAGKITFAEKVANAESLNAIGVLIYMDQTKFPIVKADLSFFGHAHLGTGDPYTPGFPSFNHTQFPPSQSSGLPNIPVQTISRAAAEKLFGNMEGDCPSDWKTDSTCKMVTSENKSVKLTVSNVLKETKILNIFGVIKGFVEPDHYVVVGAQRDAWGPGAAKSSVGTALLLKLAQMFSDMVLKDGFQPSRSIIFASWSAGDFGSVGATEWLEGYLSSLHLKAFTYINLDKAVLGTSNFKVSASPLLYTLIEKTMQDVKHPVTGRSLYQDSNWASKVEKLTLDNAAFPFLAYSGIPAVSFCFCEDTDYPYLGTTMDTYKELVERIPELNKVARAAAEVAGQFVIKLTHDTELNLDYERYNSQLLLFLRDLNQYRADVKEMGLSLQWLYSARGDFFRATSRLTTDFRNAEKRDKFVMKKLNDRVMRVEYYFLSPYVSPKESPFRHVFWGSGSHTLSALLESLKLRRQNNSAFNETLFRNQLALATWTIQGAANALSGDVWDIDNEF
The description is as above.

Bounds are passed on as bounds.

B1: Fab GS3-GBA (other)
light: DIVMTQTPLSLSVTPGQPASISCRSSQSLVHSNGNTYLHWYLQKPGQSPQLLIYKVSNRFSGVPDRFSGSGSGTDFTLKISRVEAEDVGVYYCSQSTHVPWTFGQGTKVEIKRTVAAPSVFIFPPSDEQLKSGTASVVCLLNNFYPREAKVQWKVDNALQSGNSQESVTEQDSKDSTYSLSSTLTLSKADYEKHKVYACEVTHQGLSSPVTKSFNRGEC
heavy: EVQLVQSGAEVKKPGESLKISCKGSGYSFMNYWLGWVRQMPGKGLEWMGDIYPGGDYPTYSEKFKVQVTISADKSISTAYLQLSSLKASDTAMYYCARSGNYDEVAYWGQGTLVTVSSASTKGPSVFPLAPSSKSTSGGTAALGCLVKDYFPEPVTVSWNSGALTSGVHTFPAVLQSSGLYSLSSVVTVPSSSLGTQTYICNVNHKPSNTKVDKKVEPKSCDKTHTGGGGSGGGGSGGGGSARPCIPKSFGYSSVVCVCNATYCDSFDPPTFPALGTFSRYESTRSGRRMELSMGPIQANHTGTGLLLTLQPEQKFQKVKGFGGAMTDAAALNILALSPPAQNLLLKSYFSEEGIGYNIIRVPMASCDFSIRTYTYADTPDDFQLHNFSLPEEDTKLKIPLIHRALQLAQRPVSLLASPWTSPTWLKTNGAVNGKGSLKGQPGDIYHQTWARYFVKFLDAYAEHKLQFWAVTAENEPSAGLLSGYPFQCLGFTPEHQRDFIARDLGPTLANSTHHNVRLLMLDDQRLLLPHWAKVVLTDPEAAKYVHGIAVHWYLDFLAPAKATLGETHRLFPNTMLFASEACVGSKFWEQSVRLGSWDRGMQYSHSIITNLLYHVVGWTDWNLALNPEGGPNWVRNFVDSPIIVDITKDTFYKQPMFYHLGHFSKFIPEGSQRVGLVASQKNDLDAVALMHPDGSAVVVVLNRSSKDVPLTIKDPAVGFLETISPGYSIHTYLWRRQ
notes: also called Fab HC-GS3-GBA
Take B1: in assay [1], the Kd is less than 1 pM, the off-rate constant (koff) was less than 1e-07 s⁻¹ and the kon turned out to be 623000 M⁻¹ s⁻¹. Further, the on-rate constant (kon) in assay [2] turned out to be 299000 M⁻¹ s⁻¹.

B2: Fab GS3-GUSB (other)
light: DIVMTQTPLSLSVTPGQPASISCRSSQSLVHSNGNTYLHWYLQKPGQSPQLLIYKVSNRFSGVPDRFSGSGSGTDFTLKISRVEAEDVGVYYCSQSTHVPWTFGQGTKVEIKRTVAAPSVFIFPPSDEQLKSGTASVVCLLNNFYPREAKVQWKVDNALQSGNSQESVTEQDSKDSTYSLSSTLTLSKADYEKHKVYACEVTHQGLSSPVTKSFNRGEC
heavy: EVQLVQSGAEVKKPGESLKISCKGSGYSFMNYWLGWVRQMPGKGLEWMGDIYPGGDYPTYSEKFKVQVTISADKSISTAYLQLSSLKASDTAMYYCARSGNYDEVAYWGQGTLVTVSSASTKGPSVFPLAPSSKSTSGGTAALGCLVKDYFPEPVTVSWNSGALTSGVHTFPAVLQSSGLYSLSSVVTVPSSSLGTQTYICNVNHKPSNTKVDKKVEPKSCDKTHTGGGGSGGGGSGGGGSLQGGMLYPQESPSRECKELDGLWSFRADFSDNRRRGFEEQWYRRPLWESGPTVDMPVPSSFNDISQDWRLRHFVGWVWYEREVILPERWTQDLRTRVVLRIGSAHSYAIVWVNGVDTLEHEGGYLPFEADISNLVQVGPLPSRLRITIAINNTLTPTTLPPGTIQYLTDTSKYPKGYFVQNTYFDFFNYAGLQRSVLLYTTPTTYIDDITVTTSVEQDSGLVNYQISVKGSNLFKLEVRLLDAENKVVANGTGTQGQLKVPGVSLWWPYLMHERPAYLYSLEVQLTAQTSLGPVSDFYTLPVGIRTVAVTKSQFLINGKPFYFHGVNKHEDADIRGKGFDWPLLVKDFNLLRWLGANAFRTSHYPYAEEVMQMCDRYGIVVIDECPGVGLALPQFFNNVSLHHHMQVMEEVVRRDKNHPAVVMWSVANEPASHLESAGYYLKMVIAHTKSLDPSRPVTFVSNSNYAADKGAPYVDVICLNSYYSWYHDYGHLELIQLQLATQFENWYKKYQKPIIQSEYGAETIAGFHQDPPLMFTEEYQKSLLEQYHLGLDQKRRKYVVGELIWNFADFMTEQSPTRVLGNKKGIFTRQRQPKSAAFLLRERYWKIANETRYPHSVAKSQCLENSLFT
notes: also called Fab HC-GS3-GUSB
B2: in assay [1], the dissociation constant (Kd) is less than 1 pM, the off-rate constant (koff) is less than 1e-07 s⁻¹ and the kon is 449000 M⁻¹ s⁻¹. For the same molecule, in assay [2], the dissociation constant Kd is less than 1 pM, the koff was less than 1e-07 s⁻¹ and the kon came out at 250000 M⁻¹ s⁻¹.

B3: Fab GS3-NAGLU (other)
light: DIVMTQTPLSLSVTPGQPASISCRSSQSLVHSNGNTYLHWYLQKPGQSPQLLIYKVSNRFSGVPDRFSGSGSGTDFTLKISRVEAEDVGVYYCSQSTHVPWTFGQGTKVEIKRTVAAPSVFIFPPSDEQLKSGTASVVCLLNNFYPREAKVQWKVDNALQSGNSQESVTEQDSKDSTYSLSSTLTLSKADYEKHKVYACEVTHQGLSSPVTKSFNRGEC
heavy: EVQLVQSGAEVKKPGESLKISCKGSGYSFMNYWLGWVRQMPGKGLEWMGDIYPGGDYPTYSEKFKVQVTISADKSISTAYLQLSSLKASDTAMYYCARSGNYDEVAYWGQGTLVTVSSASTKGPSVFPLAPSSKSTSGGTAALGCLVKDYFPEPVTVSWNSGALTSGVHTFPAVLQSSGLYSLSSVVTVPSSSLGTQTYICNVNHKPSNTKVDKKVEPKSCDKTHTGGGGSGGGGSGGGGSDEAREAAAVRALVARLLGPGPAADFSVSVERALAAKPGLDTYSLGGGGAARVRVRGSTGVAAAAGLHRYLRDFCGCHVAWSGSQLRLPRPLPAVPGELTEATPNRYRYYQNVCTQSYSFVWWDWARWEREIDWMALNGINLALAWSGQEAIWQRVYLALGLTQAEINEFFTGPAFLAWGRMGNLHTWDGPLPPSWHIKQLYLQHRVLDQMRSFGMTPVLPAFAGHVPEAVTRVFPQVNVTKMGSWGHFNCSYSCSFLLAPEDPIFPIIGSLFLRELIKEFGTDHIYGADTFNEMQPPSSEPSYLAAATTAVYEAMTAVDTEAVWLLQGWLFQHQPQFWGPAQIRAVLGAVPRGRLLVLDLFAESQPVYTRTASFQGQPFIWCMLHNFGGNHGLFGALEAVNGGPEAARLFPNSTMVGTGMAPEGISQNEVVYSLMAELGWRKDPVPDLAAWVTSFAARRYGVSHPDAGAAWRLLLRSVYNCSGEACRGHNRSPLVRRPSLQMNTSIWYNRSDVFEAWRLLLTSAPSLATSPAFRYDLLDLTRQAVQELVSLYYEEARSAYLSKELASLLRAGGVLAYELLPALDEVLASDSRFLLGSWLEQARAAAVSEAEADFYEQNSRYQLTLWGPEGNILDYANKQLAGLVANYYTPRWRLFLEALVDSVAQGIPFQQHQFDKNVFQLEQAFVLSKQRYPSQPRGDTVDLAKKIFLKYYPRWVAGSW
notes: also called Fab HC-GS3-NAGLU
For B3, in assay [1], the equilibrium dissociation constant (Kd) was less than 1 pM, the koff was less than 1e-07 s⁻¹ and the on-rate constant (kon) was found to be 291000 M⁻¹ s⁻¹. In addition, in assay [2], the dissociation constant Kd was 2620 pM, the off-rate constant (koff) was 0.000402 s⁻¹ and the association rate constant (kon) was 154000 M⁻¹ s⁻¹.
